From patent publication US20070004909A1 (MacroGenics, published 2007)

T1: soluble CD32B (sCD32B) (UniProt P31994 43-217, limits assumed)
T1 construct: extracellular domain; As immobilised on the BIAcore chip; also called FcγRIIB
T1 sequence (looked up): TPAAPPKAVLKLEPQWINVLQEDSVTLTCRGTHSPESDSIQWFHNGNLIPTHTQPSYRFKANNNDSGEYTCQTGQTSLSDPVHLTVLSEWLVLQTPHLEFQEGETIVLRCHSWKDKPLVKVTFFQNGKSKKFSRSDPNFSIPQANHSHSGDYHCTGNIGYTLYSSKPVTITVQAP

T2: soluble CD32A (sCD32A) (UniProt P12318 34-217, limits assumed)
T2 construct: extracellular domain; Negative control surface in SPR; also called control receptor
T2 sequence (looked up): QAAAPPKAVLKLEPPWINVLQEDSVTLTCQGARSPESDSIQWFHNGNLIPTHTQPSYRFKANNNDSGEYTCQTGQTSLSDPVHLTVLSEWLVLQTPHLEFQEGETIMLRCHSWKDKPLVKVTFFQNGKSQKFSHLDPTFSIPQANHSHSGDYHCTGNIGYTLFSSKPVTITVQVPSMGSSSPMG


Experiments:
soluble CD16A (sCD16A) [1] = target: T3, soluble CD16A (sCD16A) (UniProt P08637 17-208, limits assumed); assay: sandwich ELISA: sCD32B coated on the plate (figure legend), purified diabody diluted 1:25 to 1:100, HRP-conjugated sCD16A as the probe; OD450
T3 construct: extracellular domain; Amine-coupled to the chip in SPR; biotin- or HRP-conjugated as the probe in the sandwich ELISAs; also called FcγRIIIA; sCD16A-Biotin
T3 sequence (P08637 17-208 limits assumed): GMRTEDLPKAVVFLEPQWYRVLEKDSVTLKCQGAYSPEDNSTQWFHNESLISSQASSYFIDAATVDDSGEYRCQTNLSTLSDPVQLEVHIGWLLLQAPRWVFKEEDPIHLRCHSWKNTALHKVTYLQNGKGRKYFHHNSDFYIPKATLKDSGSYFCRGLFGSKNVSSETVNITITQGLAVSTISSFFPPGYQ

soluble CD32B (sCD32B) = target: T1, soluble CD32B (sCD32B); assay: SPR (BIAcore 1000); receptor amine-coupled (~1000 RU), analyte 6.25-200 nM; units not printed (koff/kon implies nM)
Protocol: The binding of h2B6-h3G8 CBD, h2B6 CMD and h3G8 CMD to sCD16A, and sCD32B was assayed by SPR analysis. h3G8 scFv was also tested as a control. (A) Binding of to h3G8 CMD sCD16A; (B) Binding of h2B6-h3G8 CBD to sCD16A; (C) Binding of h3G8 scFv to sCD16A; (D) Binding of h2B6 CMD to sCD32B; and (E) Binding of h2B6-h3G8 CBD to sCD32B. Diabodies were injected at concentrations of 6.25-200 nM over receptor surfaces at a flow rate of […] for 180 sec.
SPR analysis was also used to estimate the kinetic and equilibrium constants of the CMDs and h2B6-h3G8 CBD to sCD16 and/or sCD32B. Results were compared to the same constants calculated for an h3G8 scFV. FIGS. 7A-E show the graphical results of the SPR analysis. The kinetic on and off rates, as well as the equilibrium constant, calculated from the results depicted in FIG. 7 are provided in Table 13.

soluble CD32A (sCD32A) = target: T2, soluble CD32A (sCD32A); assay: SPR (BIAcore), sCD32A (negative control receptor) immobilised, diabody injected for 60 s
Protocol: (§1) The binding of h2B6-h3G8 CBD, h2B6 CMD and h3G8 CMD to sCD16A, sCD32B, and sCD32A (negative control) was assayed by SPR analysis. h3G8 scFv was also tested as a control. (A) Binding to sCD16; (B) Binding to sCD32B and (C) Binding to sCD32A. Diabodies were injected at a concentration of 100 NM, and scFv at a concentration of 200 nM, over receptor surfaces at a flow rate of […] for 60 sec.

soluble CD16A (sCD16A) [2] = target: T3, soluble CD16A (sCD16A); assay: SPR (BIAcore), sCD16 immobilised, diabody injected for 60 s
Protocol: as §1

Binder | binding result (soluble CD16A (sCD16A) [1]) | Kd (soluble CD32B (sCD32B)) | binding result (soluble CD32A (sCD32A)) | binding result (soluble CD16A (sCD16A) [2])
covalent bispecific diabody of constructs 15 and 16 (pMGX0752+pMGX0753) (bispecific antibody, Construct 15 = Hu2B6VL-Hu3G8VH-FNRGEC; construct 16 = Hu3G8VL-Hu2B6VH-VEPKSC; also called construct 15/16 combination) chain 1: EIVLTQSPDFQSVTPKEKVTFTCRTSQSIGTNIHWYQQKPDQSPKLLIKEVSESISGVPSRFSGSGSGTDFTLTINSLEAEDAATYYCQQSNTWPFTFGGGTKVEIKGGGSGGGGQVTLRESGPALVKPTQTLTLTCTFSGFSLSTSGMGVGWIRQPPGKALEWLAHIWWDDDKRYNPALKSRLTISKDTSKNQVVLTMTNMDPVDTATYYCAQINPAWFAYWGQGTLVTVSSFNRGEC chain 2: DIVMTQSPDSLAVSLGERATINCKASQSVDFDGDSFMNWYQQKPGQPPKLLIYTTSNLESGVPDRFSGSGSGTDFTLTISSLQAEDVAVYYCQQSNEDPYTFGQGTKLEIKGGGSGGGGQVQLVQSGAEVKKPGASVKVSCKASGYTFTNYWIHWVRQAPGQGLEWIGVIDPSDTYPNYNKKFKGRVTMTVVVSTSTAYMELRSLRSDDTAVYYCARNGDSDYYSGMDYWGQGTTVTVSSVEPKSC | binds |  |  | 
h2B6 covalent monospecific diabody (CMD) (other, Covalent homodimer: disulfide between the C-terminal LGGC cysteines of the two identical chains., also called h2B6 CMD; h2B6 diabody) chain 1: EIVLTQSPDFQSVTPKEKVTFTCRTSQSIGTNIHWYQQKPDQSPKLLIKEVSESISGVPSRFSGSGSGTDFTLTINSLEAEDAATYYCQQSNTWPFTFGGGTKVEIKGGGSGGGGQVQLVQSGAEVKKPGASVKVSCKASGYTFTNYWIHWVRQAPGQGLEWIGVIDPSDTYPNYNKKFKGRVTMTVVVSTSTAYMELRSLRSDDTAVYYCARNGDSDYYSGMDYWGQGTTVTVSSLGGC chain 2: EIVLTQSPDFQSVTPKEKVTFTCRTSQSIGTNIHWYQQKPDQSPKLLIKEVSESISGVPSRFSGSGSGTDFTLTINSLEAEDAATYYCQQSNTWPFTFGGGTKVEIKGGGSGGGGQVQLVQSGAEVKKPGASVKVSCKASGYTFTNYWIHWVRQAPGQGLEWIGVIDPSDTYPNYNKKFKGRVTMTVVVSTSTAYMELRSLRSDDTAVYYCARNGDSDYYSGMDYWGQGTTVTVSSLGGC |  | 21 nM | no binding (tested: 100 nM) | no binding (tested: 100 nM)
